Laboratory results taken from publication PMC7170481, “Inhibition of Ammonia Monooxygenase from Ammonia-Oxidizing Archaea by Linear and Aromatic Alkynes” (Applied and Environmental Microbiology, 2020).

Substrate: N
Assay: cells, lysate or membranes
Conditions: intact cells, total NH3 + NH4+, 0.1% DMSO, no inhibitor, whole-cell nitrite read-out
[1] = 50 mM sodium phosphate pH 7.7, 2 mM MgCl2, 30°C, pH 7.7, 30.0 °C
[2] = 10 mM HEPES pH 7, 37°C, pH 7.0, 37.0 °C

B1: AMO from Nitrosomonas europaea (Nitrosomonas europaea ATCC 19718) (protein)
chain 1: SIFRTEEILKAAKMPPEAVHMSRLIDAVYFPILIILLVGTYHMHFMLLAGDWDFWMDWKDRQWWPVVTPIVGITYCSAIMYYLWVNYRQPFGATLCVVCLLIGEWLTRYWGFYWWSHYPINFVTPGIMLPGALMLDFTLYLTRNWLVTALVGGGFFGLLFYPGNWPIFGPTHLPIVVEGTLLSMADYMGHLYVRTGTPEYVRHIEQGSLRTFGGHTTVIAAFFSAFVSMLMFTVWWYLGKVYCTAFFYVKGKRGRIVHRNDVTAFGEEGFPEGIK
chain 2: MTVTLDVSTVAAHGERSQEPFLRMRTVQWYDIKWGPEVTKVNENAKITGKFHLAEDWPRAAAQPDFSFFNVGSPSPVFVRLSTKINGHPWFISGPLQIGRDYEFEVNLRARIPGRHHMHAMLNVKDAGPIAGPGAWMNITGSWDDFTNPLKLLTGETIDSETFNLSNGIFWHVVWMSIGIFWIGVFTARPMFLPRSRVLLAYGDDLLMDPMDKKITWVLAILTLALVWGGYRYTENKHPYTVPIQAGQSKVAALPVAPNPVSIVITDANYDVPGRALRVTMEVTNNGDIPVTFGEFTTAGIRFINSTGRKYLDPQYPRELIAVGLNFDDESAIQPGQTKELKMEAKDALWEIQRLMALLGDPESRFGGLLMSWDAEGNRHINSIAGPVIPVFTKL
chain 3: MATTLGTSSASSVSSRGYDMSLWYDSKFYKFGMITMLLVAIFWVWYQRYFAYSHGMDSMEPEFDRVWMGLWRVHMAIMPLFALVTWGWILKTRDTKEQLDNLDPKLEIKRYFYYMMWLGVYIFGVYWGGSFFTEQDASWHQVIIRDTSFTPSHVVMFYGSFPMYIVCGVATYLYAMTRLPLFSRGISFPLVMAIAGPLMILPNVGLNEWGHAFWFMEELFSAPLHWGFVVLGWAGLFQGGVAAQIITRYSNLTDVVWNNQSKEILNNRIVA
Question: How did the Km [1] turn out when B1 was run?
Answer: 520.3 (19.6) μM

Question: And the Vmax [1]?
Answer: 0.324 µmol/min/mg

B2: AMO from "Ca. Nitrosocosmicus franklandus" C13 (Candidatus Nitrosocosmicus franklandianus) (protein)
chain 1: MVWLRRTTHYLFIVVVAVNSTLLTINAGDYIFYTDWAWTSFVVFSISQSTMLVVGAIYYMLFTGVPGTATYYATIMTIYTWVAKGAWFALGYPYDFVVVPVWIPSAMLLDLAYWATRRNKHAAILIGGVLVGMSLPLFNMINLLLVADPLEMAFKYPRPTLPPYMTPIEPQVGKFYNSPVALGAGAGAVLCVPIAALGAKLNTWTYRWMAAWSKWD
chain 2: MNEKSGNKPAMVFLIVTFVAGASILASIIALLPLADGHGVQAQLQSRFVRINNEAFSAQSLNTGDTLVVTGELQSLVNRPMRGWISLFSESTNAGNRWEFVSRDPPGNIIEIQPQETVPYRLEAKALEPGVYHVHTQLNLASVGPGLGPGQTIQVVGDPILKPIPWNNIIYQSIIIAAGLGVTFATRPWQVI
chain 3: MAQMPALIPKEVEIQRLKKIYLMVIMLGSIAASVEVDNFVDGSLHQTAIRDSAFTPAHWWLYSHFIALPLGWGFVAMYDRRVPVLRGPNNSMNTGLKITIIGYLATMFTIGINEMWHFWFVEEIFSVPNHWMFNMGVVVAFMGALAYVVRVYARLVELGAETPARNPYVAEMYKLALEGKLYSRSIP
Question: For B2, which Km [2] is on record?
Answer: 26.7 (4.7) μM

Question: What about the Vmax [2] of the same protein?
Answer: 0.0641 µmol/min/mg
